To fix the notation:
B1: human aP2 (fatty acid-binding protein, adipocyte, FABP4/aP2, Homo sapiens) (other)
chain: CDAFVGTWKLVSSENFDDYMKEVGVGFATRKVAGMAKPNMIISVNGDVITIKSESTFKNTEISFILGQEFDEVTADDRKVKSTITLDGGVLVHVQKWDGKSTTIKRKREDDKLVVECVMKGVTSTRVYERA
notes: Biotinylated with Sulfo-NHS-LC-Biotin for the Octet cross-reactivity assay; also called haP2; hFABP4
B3: GCGR extracellular domain (GCGR-ecd) (receptor, UniProt P47871 26-136, looked up)
chain: AQVMDFLFEKWKLYGDQCHHNLSLLPPPTELVCNRTFDKYSCWPDTPANTTANISCPWYLPWHHKVQHRFVFKRCGPDGQWVRGPRGQPWRDASQCQMDGEEIEVQKEVAK
notes: extracellular domain; also called glucagon receptor extracellular domain; not shown: Hexahistidine and WELQ protease site added during cloning; MST was run with tag and with

For assay [1], the target named is T1, glucagon.
T1 construct: This id is also used for the endogenous glucagon of mouse serum; also called biotin-glucagon; biotinylated glucagon
Briefly: binding curve, Response (ΔFnorm [‰]) against Ligand Concentration [nM]; the table under the plot has no unit, nM is that of the axis; paragraph 390 names an Octet system; which partner is titrated is not given. In general terms: Biolayer interferometry detects binding as a change in optical thickness at a sensor tip.

The target of assay [2] is T1, glucagon. Briefly: binding curve, Response (ΔFnorm [‰]) against Ligand Concentration [nM]; table under the plot.
For assay [3], the target named is B3. The experiment in a line: binding curve, Response (ΔFnorm [‰]) against Ligand Concentration [nM]; the table under the plot has no unit, nM is that of the axis; paragraph 390 names an Octet system; which partner is titrated is not given.
Assay [4] concerns the target B3. Briefly: binding curve, Response (ΔFnorm [‰]) against Ligand Concentration [nM]; table under the plot.
Assay [5] concerns the target glucagon/aP2 complex (glucagon plus aP2, Example 1) (Mus musculus (Mouse), UniProt P04117 1-132, limits assumed). Briefly: BLI (BLItz): GCGR-ecd on biotin-glucagon immobilized on streptavidin sensors, in the presence of aP2.
For assay [6], the target named is B1. Briefly: Biacore T200, anti-aP2 IgG captured on anti-mouse IgG Fc, aP2 titrated over it; steady-state fit for CA33. In general terms: SPR reads the build-up and loss of mass on a sensor chip optically.
The target of assay [7] is T2, hFABP5/hMal1 (recombinant human FABP5, Sino Biological Inc.) (human, UniProt Q01469 1-135, limits assumed).
T2 construct: Biotinylated with Sulfo-NHS-LC-Biotin and loaded on streptavidin biosensors; also called FABP5/Mal1; Mal1/FABP5
Briefly: Octet RED384, biotinylated human FABP on streptavidin biosensors, antibody at 800 nM. Here is the method: The recombinant human proteins aP2 (generated at UCB in E. coli (see method below)), hFABP3 (Sino Biological Inc.) and hFABP5/hMall (Sino Biological Inc.) were biotinylated in a 5-fold molar excess of EZ-Link® Sulfo-NHS-LC-Biotin (Thermo Fisher Scientific) and purified from unbound biotin using a Zeba desalting column (Thermo Fisher Scientific). All binding studies were performed at 25° C. using a ForteBio Octet RED384 system (Pall ForteBio Corp.). […] Biosensors were then transferred back to PBS-T for 5 min. to measure dissociation. Non-specific binding of antibodies was monitored using unloaded biosensor tips.

As usually defined, the EC50 is the midpoint of the concentration-response curve. For orientation: Kd means the constant that tells how readily two partners part at equilibrium.

T1 sequence (peptide, as listed by the source): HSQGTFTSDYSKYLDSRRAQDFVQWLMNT
T2 sequence (Q01469 whole entry): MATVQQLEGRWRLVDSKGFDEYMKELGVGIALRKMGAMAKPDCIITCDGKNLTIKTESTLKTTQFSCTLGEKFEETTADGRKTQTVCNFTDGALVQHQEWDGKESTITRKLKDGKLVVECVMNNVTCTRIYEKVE

In the case of B1, in the assay with glucagon [1], the EC50 is 20.3 nM. The logEC50 with glucagon [2] was 1.31.

B2: aP2 (recombinant aP2 of Example 1) (other)
chain: MCDAFVGTWKLVSSENFDDYMKEVGVGFATRKVAGMAKPNMIISVNGDLVTIRSESTFKNTEISFKLGVEFDEITADDRKVKSIITLDGGALVQVQKWDGKSTTIKRKRDGDKLVVECVMKGVTSTRVYERA
notes: Used unlabelled, and amine-biotinylated in the scintillation proximity assay; also called FABP4
Take B2: it took 327 nM to reach a half-maximal effect in assay [3] (EC50). In addition, in assay [4], the logEC50 came to 2.51.

For B3, the Kd in assay [5] came to 54.1 nM.

B4: CA33 (Rabbit Ab 909) (antibody, V domains shown)
VH: QSVEESGGRLVTPGTPLTLTCTVSGFSLSTYYMSWVRQAPGKGLEWIGIIYPSGSTYCASWAKGRFTISKASTTVDLKITSPTTEDTATYFCARPDNDGTSGYLSGFGLWGQGTLVTVSS
VL: DVVMTQTPASVSEPVGGTVTIKCQASEDISRYLVWYQQKPGQPPKRLIYKASTLASGVPSRFKGSGSGTDFTLTISDLECDDAATYYCQCTYGTYAGSFFYSFGGGTEVVVE
notes: Rabbit variable regions; also called Rabbit Antibody 909; antibody 909
As to B4, the Kd in assay [6] came out at 2830 nM. For the same molecule, the binding result in assay [7] is on record as “no binding (tested: 800 nM)”.
